# Source: paper PMC11711546 (2024)
# B1: TSHZ3-HA wild-type (teashirt zinc finger homeobox 3) [human] / MYOCD-Flag (myocardin) [not stated] (parent complex)
# chain 1: MPRRKQQAPRRAAAYVSEELKAAALVDEGLDPEEHTADGEPSAKYMCPEKELARACPSYQNSPAAEFSCHEMDSESHISETSDRMADFESGSIKNEEETKEVTVPLEDTTVSDSLEQMKAVYNNFLSNSYWSNLNLNLHQPSSEKNNGSSSSSSSSSSSCGSGSFDWHQSAMAKTLQQVSQSRMLPEPSLFSTVQLYRQSSKLYGSIFTGASKFRCKDCSAAYDTLVELTVHMNETGHYRDDNHETDNNNPKRWSKPRKRSLLEMEGKEDAQKVLKCMYCGHSFESLQDLSVHMIKTKHYQKVPLKEPVTPVAAKIIPATRKKASLELELPSSPDSTGGTPKATISDTNDALQKNSNPYITPNNRYGHQNGASYAWHFEARKSQILKCMECGSSHDTLQELTAHMMVTGHFIKVTNSAMKKGKPIVETPVTPTITTLLDEKVQSVPLAATTFTSPSNTPASISPKLNVEVKKEVDKEKAVTDEKPKQKDKPGEEEEKCDISSKYHYLTENDLEESPKGGLDILKSLENTVTSAINKAQNGTPSWGGYPSIHAAYQLPNMMKLSLGSSGKSTPLKPMFGNSEIVSPTKNQTLVSPPSSQTSPMPKTNFHAMEELVKKVTEKVAKVEEKMKEPDGKLSPPKRATPSPCSSEVGEPIKMEASSDGGFRSQENSPSPPRDGCKDGSPLAEPVENGKELVKPLASSLSGSTAIITDHPPEQPFVNPLSALQSVMNIHLGKAAKPSLPALDPMSMLFKMSNSLAEKAAVATPPPLQSKKADHLDRYFYHVNNDQPIDLTKGKSDKGCSLGSVLLSPTSTAPATSSSTVTTAKTSAVVSFMSNSPLRENALSDISDMLKNLTESHTSKSSTPSSISEKSDIDGATLEEAEESTPAQKRKGRQSNWNPQHLLILQAQFAASLRQTSEGKYIMSDLSPQERMHISRFTGLSMTTISHWLANVKYQLRRTGGTKFLKNLDTGHPVFFCNDCASQIRTPSTYISHLESHLGFRLRDLSKLSTEQINSQIAQTKSPSEKMVTSSPEEDLGTSYQCKLCNRTFASKHAVKLHLSKTHGKSPEDHLLYVSELEKQ
# chain 2: MTLLGSEHSLLIRSKFRSVLQLRLQQRRTQEQLANQGIIPPLKRPAEFHEQRKHLDSDKAKNSLKRKARNRCNSADLVNMHILQASTAERSIPTAQMKLKRARLADDLNEKIALRPGPLELVEKNILPVDSAVKEAIKGNQVSFSKSTDAFAFEEDSSSDGLSPDQTRSEDPQNSAGSPPDAKASDTPSTGSLGTNQDLASGSENDRNDSASQPSHQSDAGKQGLGPPSTPIAVHAAVKSKSLGDSKNRHKKPKDPKPKVKKLKYHQYIPPDQKAEKSPPPMDSAYARLLQQQQLFLQLQILSQQQQQQQHRFSYLGMHQAQLKEPNEQMVRNPNSSSTPLSNTPLSPVKNSFSGQTGVSSFKPGPLPPNLDDLKVSELRQQLRIRGLPVSGTKTALMDRLRPFQDCSGNPVPNFGDITTVTFPVTPNTLPNYQSSSSTSALSNGFYHFGSTSSSPPISPASSDLSVAGSLPDTFNDASPSFGLHPSPVHVCTEESLMSSLNGGSVPSELDGLDSEKDKMLVEKQKVINELTWKLQQEQRQVEELRMQLQKQKRNNCSEKKPLPFLAASIKQEEAVSSCPFASQVPVKRQSSSSECHPPACEAAQLQPLGNAHCVESSDQTNVLSSTFLSPQCSPQHSPLGAVKSPQHISLPPSPNNPHFLPSSSGAQGEGHRVSSPISSQVCTAQMAGLHSSDKVGPKFSIPSPTFSKSSSAISEVTQPPSYEDAVKQQMTRSQQMDELLDVLIESGEMPADAREDHSCLQKVPKIPRSSRSPTAVLTKPSASFEQASSGSQIPFDPYATDSDEHLEVLLNSQSPLGKMSDVTLLKIGSEEPHFDGIMDGFSGKAAEDLFNAHEILPGPLSPMQTQFSPSSVDSNGLQLSFTESPWETMEWLDLTPPNSTPGFSALTTSSPSIFNIDFLDVTDLNLNSSMDLHLQQW
# B2: TSHZ3-HA wild-type (teashirt zinc finger homeobox 3) [human] / SOX9-Flag (SRY-box transcription factor 9) [not stated] (parent complex)
# chain 1: B1 chain 1
# chain 2: MNLLDPFMKMTDEQEKGLSGAPSPTMSEDSAGSPCPSGSGSDTENTRPQENTFPKGEPDLKKESEEDKFPVCIREAVSQVLKGYDWTLVPMPVRVNGSSKNKPHVKRPMNAFMVWAQAARRKLADQYPHLHNAELSKTLGKLWRLLNESEKRPFVEEAERLRVQHKKDHPDYKYQPRRRKSVKNGQAEAEEATEQTHISPNAIFKALQADSPHSSSGMSEVHSPGEHSGQSQGPPTPPTTPKTDVQPGKADLKREGRPLPEGGRQPPIDFRDVDIGELSSDVISNIETFDVNEFDQYLPPNGHPGVPATHGQVTYTGSYGISSTAATPASAGHVWMSKQQAPPPPPQQPPQAPPAPQAPPQPQAAPPQQPAAPPQQPQAHTLTTLSSEPGQSQRTHIKTEQLSPSHYSEQQQHSPQQIAYSPFNLPHYSPSYPPITRSQYDYTDHQNSSSYYSHAAGQGTGLYSTFTYMNPAQRPMYTPIADTSGVPSIPQTHSPQHWEQPVYTQLTRP
# Variants of: B1
# Assay: co-immunoprecipitation (anti-HA beads), Western blot densitometry; parent: 1; read off a plot
row,Variant,response
1,chain 1 S58G,~1.9 MYOCD-Flag / TSHZ3-HA in IP
2,chain 1 A65T,~1.5 MYOCD-Flag / TSHZ3-HA in IP
3,chain 1 P63L,~1.6 MYOCD-Flag / TSHZ3-HA in IP

# Variants of: B2
# Assay: as above
row,Variant,response
1,chain 1 S58G,~0.46 SOX9-Flag / TSHZ3-HA in IP
2,chain 1 P63L,~1.1 SOX9-Flag / TSHZ3-HA in IP
3,chain 1 A65T,~1.4 SOX9-Flag / TSHZ3-HA in IP
